Experimental data published in doi:10.1101/194993.

Key:
[1] = target: native tubulin purified from porcine brain, polymerised to microtubules (MTs) (porcine); test: co-sedimentation
[2] = target: native tubulin purified from porcine brain, polymerised to microtubules (MTs) (porcine); test: co-sedimentation; remark: listed apart in the source
[3] = target: native tubulin purified from porcine brain, polymerised to microtubules (MTs) (porcine); test: co-sedimentation; remark: listed apart in the source
[4] = target: native tubulin purified from porcine brain, polymerised to microtubules (MTs) (porcine); test: total internal reflection fluorescence microscopy

B1: full-length (FL) Cdt1^1-546, untagged (natural protein)
chain: MEQRRVTDFFARRRPGPPRIAPPKLACRTPSPARPALRAPASATSGSRKRARPPAAPGRDQARPPARRRLRLSVDEVSSPSTPEAPDIPACPSPGQKIKKSTPAAGQPPHLTSAQDQDTISELASCLQRARELGARVRALKASAQDAGESCTPEAEGRPEEPCGEKAPAYQRFHALAQPGLPGLVLPYKYQVLAEMFRSMDTIVGMLHNRSETPTFAKVQRGVQDMMRRRFEECNVGQIKTVYPASYRFRQERSVPTFKDGTRRSDYQLTIEPLLEQEADGAAPQLTASRLLQRRQIFSQKLVEHVKEHHKAFLASLSPAMVVPEDQLTRWHPRFNVDEVPDIEPAALPQPPATEKLTTAQEVLARARNLISPRMEKALSQLALRSAAPSSPGSPRPALPATPPATPPAASPSALKGVSQDLLERIRAKEAQKQLAQMTRCPEQEQRLQRLERLPELARVLRSVFVSERKPALSMEVACARMVGSCCTIMSPGEMEKHLLLLSELLPDWLSLHRIRTDTYVKLDKAADLAHITARLAHQTRAEEGL
Work on B1 yielded a Kd [1] of 2290 nM.

B2: Cdt1^410-546 (N-terminal GFP fusion) (domain or fragment)
chain: ASPSALKGVSQDLLERIRAKEAQKQLAQMTRCPEQEQRLQRLERLPELARVLRSVFVSERKPALSMEVACARMVGSCCTIMSPGEMEKHLLLLSELLPDWLSLHRIRTDTYVKLDKAADLAHITARLAHQTRAEEGL
B2 was tested, and the reduction of MT binding against Cdt1^92-546 [1] was 50%.

B3: Cdt1^92-546 (human Cdt1 devoid of the N-terminal 92 aa, N-terminal GFP fusion) (domain or fragment)
chain: PSPGQKIKKSTPAAGQPPHLTSAQDQDTISELASCLQRARELGARVRALKASAQDAGESCTPEAEGRPEEPCGEKAPAYQRFHALAQPGLPGLVLPYKYQVLAEMFRSMDTIVGMLHNRSETPTFAKVQRGVQDMMRRRFEECNVGQIKTVYPASYRFRQERSVPTFKDGTRRSDYQLTIEPLLEQEADGAAPQLTASRLLQRRQIFSQKLVEHVKEHHKAFLASLSPAMVVPEDQLTRWHPRFNVDEVPDIEPAALPQPPATEKLTTAQEVLARARNLISPRMEKALSQLALRSAAPSSPGSPRPALPATPPATPPAASPSALKGVSQDLLERIRAKEAQKQLAQMTRCPEQEQRLQRLERLPELARVLRSVFVSERKPALSMEVACARMVGSCCTIMSPGEMEKHLLLLSELLPDWLSLHRIRTDTYVKLDKAADLAHITARLAHQTRAEEGL
For B3, the Kd [2] was 2030 nM, the Kd [3] was 1850 nM and the Kd [1] was 2200 nM. The binding left in the presence of 250 mM NaCl [1] was 50%, the Kd [4] was 460 nM and the dwell time [4] was 2.37 s. It also gave a kon [4] of 1070 M⁻¹ s⁻¹.

B4: Cdt1^92-546 8D (Aurora B phosphomimetic mutant) (domain or fragment)
chain: PSPGQKIKKDDPAAGQPPHLTSAQDQDTISELASCLQRARELGARVRALKADAQDAGESCTPEAEGRPEEPCGEKAPAYQRFHALAQPGLPGLVLPYKYQVLAEMFRSMDTIVGMLHNRSETPTFAKVQRGVQDMMRRRFEECNVGQIKTVYPASYRFRQERSVPTFKDGTRRDDYQLDIEPLLEQEADGAAPQLDASRLLQRRQIFSQKLVEHVKEHHKAFLASLSPAMVVPEDQLDRWHPRFNVDEVPDIEPAALPQPPATEKLDTAQEVLARARNLISPRMEKALSQLALRSAAPSSPGSPRPALPATPPATPPAASPSALKGVSQDLLERIRAKEAQKQLAQMTRCPEQEQRLQRLERLPELARVLRSVFVSERKPALSMEVACARMVGSCCTIMSPGEMEKHLLLLSELLPDWLSLHRIRTDTYVKLDKAADLAHITARLAHQTRAEEGL
B4 was tested, and the Kd [2] was 5500 nM.
